Measured values taken from patent US20230257470A1 (published 2023).
Positions count from the first letter of the chain named. Names may count otherwise.

B1: antibody containing VH3-IgG2-F890 for the heavy chain and L(WT)-CK for the light chain (antibody)
heavy: QVQLQESGPGLVKPSETLSLTCAVSGHSISHDHAWSWVRQPPGEGLEWIGFISYSGITNYNPSLQGRVTISRDNSKNTLYLQMNSLRAEDTAVYYCARSLARTTAMDYWGEGTLVTVSSASTKGPSVFPLAPCSRSTSESTAALGCLVKDYFPEPVTVSWNSGALTSGVHTFPAVLQSSGLYSLSSVVTVPSSNFGTQTYTCNVDHKPSNTKVDKTVERKCCVECPPCPAPPVAGPSVFLFPPKPKDTLYISRTPEVTCVVVDVSHEDPEVQFNWYVDGVEVHNAKTKPREEQFNSTFRVVSVLTVVHQDWLNGKEYKCKVSNKGLPAPIEKTISKTKGQPREPQVYTLPPSREEMTKNQVSLTCLVKGFYPSDIAVEWESNGQPENNYKTTPPMLDSDGSFFLYSKLTVDKSRWQQGNVFSCSVMHEALHYHVTQKSLSLSP
light: not shown
notes: VH3-IgG2 with M252Y/N434Y/Y436V (EU numbering)
B2: antibody containing VH3-IgG2-F939 for the heavy chain and L(WT)-CK for the light chain (antibody)
heavy: B1 heavy with A234R, S237K
light: not shown
notes: VH3-IgG2 with A235R/S239K/M252Y/N434Y/Y436V (EU numbering)
B3: antibody containing VH3-IgG2 for the heavy chain and L(WT)-CK for the light chain (antibody)
heavy: B1 heavy with Y250M, Y432N, V434Y
light: not shown
B4: antibody containing VH3-IgG4-F890 for the heavy chain and L(WT)-CK for the light chain (antibody)
heavy: QVQLQESGPGLVKPSETLSLTCAVSGHSISHDHAWSWVRQPPGEGLEWIGFISYSGITNYNPSLQGRVTISRDNSKNTLYLQMNSLRAEDTAVYYCARSLARTTAMDYWGEGTLVTVSSASTKGPSVFPLAPCSRSTSESTAALGCLVKDYFPEPVTVSWNSGALTSGVHTFPAVLQSSGLYSLSSVVTVPSSSLGTKTYTCNVDHKPSNTKVDKRVESKYGPPCPPCPAPEFLGGPSVFLFPPKPKDTLYISRTPEVTCVVVDVSQEDPEVQFNWYVDGVEVHNAKTKPREEQFNSTYRVVSVLTVLHQDWLNGKEYKCKVSNKGLPSSIEKTISKAKGQPREPQVYTLPPSQEEMTKNQVSLTCLVKGFYPSDIAVEWESNGQPENNYKTTPPVLDSDGSFFLYSRLTVDKSRWQEGNVFSCSVMHEALHYHVTQKSLSLSL
light: not shown
notes: VH3-IgG4 with M252Y/N434Y/Y436V (EU numbering)
B5: antibody containing VH3-IgG4-F939 for the heavy chain and L(WT)-CK for the light chain (antibody)
heavy: B4 heavy with L234R, S238K
light: not shown
notes: VH3-IgG4 with L235R/S239K/M252Y/N434Y/Y436V (EU numbering)
B6: IL6R-PD094/IL6R-L (antibody, human IgG1)
heavy: QVQLQESGPGLVKPSETLSLTCAVSGHSISHDHAWSWVRQPPGEGLEWIGFISYSGITNYNPSLQGRVTISRDNSKNTLYLQMNSLRAEDTAVYYCARSLARTTAMDYWGEGTLVTVSSASTKGPSVFPLAPSSKSTSGGTAALGCLVKDYFPEPVTVSWNSGALTSGVHTFPAVLQSSGLYSLSSVVTVPSSSLGTQTYICNVNHKPSNTKVDKKVEPKSCDKTHTCPPCPAPELLGWDSVFLFPPKPKDTLYISRTPEVTCVVVDVSHEDPEVKFNWYVDGVEVHNAKTKPREEQYNSTYRVVSVLTVLHQDWLNGKEYKCKVSNKALPAPIEKTISKAKGQPREPQVYTLPPSRDELTKNQVSLTCLVKGFYPSDIAVEWESNGQPENNYKTTPPVLDSDGSFFLYSKLTVDKSRWQQGNVFSCSVMHEALHYHYTQKSLSLSP
light: DIQMTQSPSSLSASVGDRVTITCRASQDISSYLNWYQQKPGKAPKLLIYYTSRLHSGVPSRFSGSGSGTDFTFTISSLQPEDIATYYCQQGNTLPYTFGQGTKVEIK
notes: Alterations introduced into IL6R-F11; also called P238D/G237W
B7: IL6R-PD097/IL6R-L (antibody, human IgG1)
heavy: B6 heavy with W239G, S241D
light: B6 light
notes: Alterations introduced into IL6R-F11; also called P238D/S239D
B8: IL6R-PD095/IL6R-L (antibody, human IgG1)
heavy: B6 heavy with W239Y
light: B6 light
notes: Alterations introduced into IL6R-F11; also called P238D/G237Y
B9: IL6R-PD081/IL6R-L (antibody, human IgG1)
heavy: B6 heavy with W239E
light: B6 light
notes: Alterations introduced into IL6R-F11; also called P238D/G237E
B10: IL6R-PD043/IL6R-L (antibody, human IgG1)
heavy: B6 heavy with L236Y, W239G
light: B6 light
notes: Alterations introduced into IL6R-F11; also called P238D/L234Y
B11: IL6R-PD042/IL6R-L (antibody, human IgG1)
heavy: B6 heavy with L236W, W239G
light: B6 light
notes: Alterations introduced into IL6R-F11; also called P238D/L234W
B12: IL6R-PD082/IL6R-L (antibody, human IgG1)
heavy: B6 heavy with W239F
light: B6 light
notes: Alterations introduced into IL6R-F11; also called P238D/G237F
B13: IL6R-PD080/IL6R-L (antibody)
heavy: B6 heavy with W239D
light: B6 light
notes: Alterations introduced into IL6R-F11; also called P238D/G237D
B14: IL6R-PD079/IL6R-L (antibody, human IgG1)
heavy: B6 heavy with W239A
light: B6 light
notes: Alterations introduced into IL6R-F11; also called P238D/G237A
B15: IL6R-PD087/IL6R-L (antibody, human IgG1)
heavy: B6 heavy with W239M
light: B6 light
notes: Alterations introduced into IL6R-F11; also called P238D/G237M
B16: IL6R-BP087/IL6R-L (antibody, human IgG1, name in EU numbering)
heavy: B6 heavy with L236Y, W239G, Y254M, A332K, Y436N, K441E
light: B6 light
notes: Alterations introduced into IL6R-B3 (EU numbering)
B17: IL6R-BP151/IL6R-L (antibody, human IgG1, name in EU numbering)
heavy: B6 heavy with E235D, L236Y, W239D, Y254M, K328A, A332R, Y436N, K441E
light: B6 light
notes: as for B16
B18: IL6R-BP089/IL6R-L (antibody, human IgG1, name in EU numbering)
heavy: B6 heavy with L236Y, W239G, Y254M, K328A, A332K, Y436N, K441E
light: B6 light
notes: as for B16

target: T1, human FcγRIIIa(V) (allotype V158) (human, UniProt P08637 17-208, limits assumed); test: SPR (Biacore), antibody captured by Protein L, FcγR as analyte, pH 7.4, 25 C;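 also: Buffer-blank-subtracted FcγR response, normalized to the captured antibody level and scaled to 1500 RU of captured antibody, CM4 chip, ACES-NaCl running buffer with polysorbate 20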
T1 construct: also called hFcgRIIIa(V)
T1 sequence (P08637 other isoform, or with tags, fused parts or gaps limits assumed): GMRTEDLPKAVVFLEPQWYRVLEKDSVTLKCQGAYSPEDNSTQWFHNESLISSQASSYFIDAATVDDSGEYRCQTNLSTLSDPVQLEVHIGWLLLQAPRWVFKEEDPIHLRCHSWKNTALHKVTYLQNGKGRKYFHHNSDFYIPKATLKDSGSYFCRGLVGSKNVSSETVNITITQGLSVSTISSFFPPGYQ
Protocol: (§1) Binding activity between the antibodies and human FcγRIa, FcγRIIa(H), FcγRIIa(R), FcγRIIb and FcγRIIIa(F) (hereinafter referred to as human FcγRs) was evaluated using the BIACORE™ T100 or T200 surface plasmon resonance system (GE Healthcare). The antibodies being tested were captured by Protein L (ACTIGEN® protein (Alltech)) that was immobilized in suitable amounts on the CM4 Sensor Chip (GE Healthcare) by amine coupling. Next, the diluted human FcγRs and a running buffer used as a blank were injected to allow interaction with the antibodies captured on the sensor chip. A buffer consisting of 20 mmol/L N-(2-acetamido)-2-aminoethanesulfonic acid (ACES), 150 mmol/L NaCl and 0.05% (w/v) polysorbate 20 (Tween 20®) (pH 7.4) was used for the running buffer, and this buffer was also used to dilute the human FcγRs. 10 mmol/L glycine-HCl (pH 1.5) was used to regenerate the sensor chip. All measurements were carried out at 25° C.
(§2) Binding activity to human FcγRs can be represented by the relative binding activity to human FcγRs. Antibody was captured by Protein L, and the amount of change in a sensorgram before and after the antibody was captured was defined as X1. Next, human FcγRs were allowed to interact with the antibody, and the value obtained by subtracting binding activity of human FcγRs represented as the amount of change in a sensorgram before and after allowing the running buffer to interact with antibody captured by Protein L (ΔA2) from the value obtained by multiplying by 1500 the value obtained by dividing the binding activity of human FcγRs represented as the amount of change in a sensorgram before and after that interaction (ΔA1) by the captured amount (X) of each antibody, was divided by the captured amount of each antibody (X) followed by multiplying by 1500 to obtain the binding activity of the human FcγRs (Y) (Equation 2).

Binder	BINDING AMOUNT (RU)
B1	28.1 RU
B2	1.1 RU
B3	50.1 RU
B4	15.5 RU
B5	-0.5 RU

target: T2, human FcγRIIa(H) (allotype H131) (human, UniProt P12318 36-217); test: as above
T2 construct: Soluble analyte in SPR; also called hFcgRIIa(H); FcgRIIaH
T2 sequence: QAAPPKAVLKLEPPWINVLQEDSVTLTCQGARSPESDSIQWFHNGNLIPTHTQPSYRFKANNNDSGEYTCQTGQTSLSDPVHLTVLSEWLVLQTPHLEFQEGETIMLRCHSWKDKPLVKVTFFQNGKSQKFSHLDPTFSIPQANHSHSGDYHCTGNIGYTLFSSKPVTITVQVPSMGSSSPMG
Protocol: as §1, §2

Binder	BINDING AMOUNT (RU)
B1	204 RU
B2	1 RU
B3	266 RU
B4	37.5 RU
B5	-0.7 RU

target: T3, human FcγRIIIa(F) (allotype F158) (human, UniProt P08637 17-208, limits assumed); test: as above
T3 construct: also called hFcgRIIIa(F); FcgRIIIaF
T3 sequence (P08637 other isoform, or with tags, fused parts or gaps limits assumed): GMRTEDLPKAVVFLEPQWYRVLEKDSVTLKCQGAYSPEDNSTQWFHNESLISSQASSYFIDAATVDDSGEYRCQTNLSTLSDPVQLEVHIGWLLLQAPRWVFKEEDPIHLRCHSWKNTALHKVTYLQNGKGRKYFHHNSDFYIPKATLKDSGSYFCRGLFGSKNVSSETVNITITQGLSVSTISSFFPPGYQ
Protocol: as §1, §2

Binder	BINDING AMOUNT (RU)
B1	9.3 RU
B2	0.6 RU
B3	16.3 RU
B4	3.4 RU
B5	-1.7 RU

target: T4, human FcγRIIb (human, UniProt P31994 43-217, limits assumed); test: as above
T4 construct: Soluble analyte in SPR; also called hFcgRIIb; FcgRIIb
T4 sequence: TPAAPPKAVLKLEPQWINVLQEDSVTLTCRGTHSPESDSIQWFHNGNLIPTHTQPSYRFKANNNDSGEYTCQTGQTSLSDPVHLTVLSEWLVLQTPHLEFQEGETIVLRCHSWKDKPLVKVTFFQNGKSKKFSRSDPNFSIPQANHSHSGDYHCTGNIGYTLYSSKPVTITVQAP
Protocol: as §1, §2

Binder	BINDING AMOUNT (RU)
B1	31.9 RU
B2	0.4 RU
B3	55.5 RU
B4	71.8 RU
B5	0.4 RU

Target: T5, human FcγRIIa(R) (allotype R131) (human, UniProt P12318 36-217)
T5 construct: Soluble analyte in SPR; also called hFcgRIIa(R); FcgRIIaR
T5 chain: T2 sequence with H133R
Test: as above
Protocol: as §1, §2

Binder	BINDING AMOUNT (RU)
B1	120 RU
B2	1 RU
B3	188 RU
B4	92.8 RU
B5	-0.2 RU

target: T6, human FcγRIa (human, UniProt P12314 16-292, limits assumed); test: as above
T6 construct: Soluble analyte in SPR; also called hFcgRIa; FcgRIa
T6 sequence (P12314 16-292 limits assumed): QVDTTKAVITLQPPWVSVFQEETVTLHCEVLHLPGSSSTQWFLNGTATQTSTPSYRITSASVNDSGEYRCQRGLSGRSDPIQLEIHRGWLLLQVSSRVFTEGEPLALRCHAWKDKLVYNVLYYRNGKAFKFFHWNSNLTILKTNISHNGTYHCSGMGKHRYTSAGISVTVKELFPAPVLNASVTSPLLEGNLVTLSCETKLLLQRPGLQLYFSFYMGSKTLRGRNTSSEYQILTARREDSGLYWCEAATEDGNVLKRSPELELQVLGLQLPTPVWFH
Protocol: as §1, §2

Binder	BINDING AMOUNT (RU)
B1	19.7 RU
B2	1.3 RU
B3	38.6 RU
B4	367 RU
B5	1.2 RU

Target: T7, human FcγRIIa type R (human, UniProt P12318 36-217)
T7 construct: also called FcγRIIaR; Fc γ RIIaR
T7 chain: T2 sequence with H133R
Test: SPR (Biacore), captured antibody, FcγR as analyte; binding amount divided by that of IL6R-F652/IL6R-L, times 100

Binder	RELATIVE BINDING ACTIVITY FOR FcγRIIaR
B6	593 relative (IL6R-F652/IL6R-L = 100)
B7	844 relative (IL6R-F652/IL6R-L = 100)
B8	543 relative (IL6R-F652/IL6R-L = 100)
B9	117 relative (IL6R-F652/IL6R-L = 100)
B10	175 relative (IL6R-F652/IL6R-L = 100)
B11	240 relative (IL6R-F652/IL6R-L = 100)
B12	380 relative (IL6R-F652/IL6R-L = 100)
B13	222 relative (IL6R-F652/IL6R-L = 100)
B14	138 relative (IL6R-F652/IL6R-L = 100)
B15	196 relative (IL6R-F652/IL6R-L = 100)

target: T8, human FcγRIIb (human, UniProt P31994 43-217); test: as above
T8 construct: also called FcγIIB
T8 sequence: T4 sequence

Binder	RELATIVE BINDING ACTIVITY FOR FcγRIIb
B6	122 relative (IL6R-F652/IL6R-L = 100)
B7	139 relative (IL6R-F652/IL6R-L = 100)
B8	124 relative (IL6R-F652/IL6R-L = 100)
B9	101 relative (IL6R-F652/IL6R-L = 100)
B10	112 relative (IL6R-F652/IL6R-L = 100)
B11	106 relative (IL6R-F652/IL6R-L = 100)
B12	108 relative (IL6R-F652/IL6R-L = 100)
B13	127 relative (IL6R-F652/IL6R-L = 100)
B14	101 relative (IL6R-F652/IL6R-L = 100)
B15	109 relative (IL6R-F652/IL6R-L = 100)

target: T9, human FcγRIIb (human, UniProt P31994 43-217, limits assumed); test: ratio of SPR KD values: KD for FcγRIIaR divided by KD for FcγRIIb
T9 construct: Whole entry (AAI46679.1); also called FcγIIB; FcgRIIb
T9 sequence: T4 sequence
Protocol: Next, interaction between these antibodies and FcγR was analyzed kinetically using the BIACORE™ T100 (GE Healthcare). The interaction was measured at a temperature of 25° C. using HBS-EP+ (GE Healthcare) for the running buffer. The Series S Sensor Chip CM5 (GE Healthcare) was used after immobilizing Protein A by amine coupling. […] Antibody captured on the chip was washed by allowing 10 mM glycine-HCl (pH 1.5) to react following measurement. The chip regenerated in this manner was used repeatedly. The dissociation constant KD (mol/L) was calculated from the association rate constant ka (L/mol/s) and dissociation rate constant kd (1/s) as calculated by global-fitting the measurement results with a 1:1 Langmuir binding model using the BIACORE™ Evaluation Software.
Furthermore, KD(IIaR)/KD(IIb) and KD(IIaH)/KD(IIb) in the table respectively represent the value obtained by dividing the KD value of each variant for FcγRIIaR by the KD value of each variant for FcγRIIb, and the value obtained by dividing the KD value of each variant for FcγRIIaH by the KD value of each variant for FcγRIIb.

Binder	KD(IIaR)/KD(IIb)
B16	15
B17	15.9
B18	15.5
